Measured values as given in patent US20240124586A1 (WUXI BIOLOGICS IRELAND, published 2024).

Experiments:
[1] = biological target: T1, cynomolgus CD19 on CHO-K1 cells (WBP701.CHO-K1.cpro1.FL.C9) (cynomolgus monkey, UniProt A0A2K5W8L9 20-557); assay: flow cytometry on cynomolgus CD19 CHO-K1 cells
T1 construct: whole, on cells; also called cynomolgus-CD19 expressing cell; WBP701.CHOK1.cPro1.C9
T1 sequence: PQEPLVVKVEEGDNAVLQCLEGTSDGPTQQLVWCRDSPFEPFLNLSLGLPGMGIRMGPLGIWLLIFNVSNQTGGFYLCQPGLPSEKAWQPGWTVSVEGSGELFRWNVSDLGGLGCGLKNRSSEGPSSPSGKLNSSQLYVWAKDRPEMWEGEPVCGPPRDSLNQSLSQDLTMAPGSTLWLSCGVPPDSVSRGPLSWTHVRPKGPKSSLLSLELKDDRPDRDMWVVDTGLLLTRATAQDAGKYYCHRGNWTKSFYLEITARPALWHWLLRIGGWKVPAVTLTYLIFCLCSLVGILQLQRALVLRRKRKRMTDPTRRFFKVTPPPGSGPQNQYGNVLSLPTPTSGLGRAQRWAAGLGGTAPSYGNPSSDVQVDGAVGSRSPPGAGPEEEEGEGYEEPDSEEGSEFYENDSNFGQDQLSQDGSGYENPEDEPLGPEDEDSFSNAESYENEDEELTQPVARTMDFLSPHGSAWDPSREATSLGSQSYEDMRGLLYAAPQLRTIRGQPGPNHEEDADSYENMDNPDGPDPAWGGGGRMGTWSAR
Method: Binding of the CD3×CD19 bispecific antibody to Cynomolgus CD19 target protein expressed on CHOK1 cells was determined by flow cytometry analysis. In brief, cynomolgus CD19 over-expressed stable cell line (WBP701.CHOK1.cPro1.C9, WuXi Biologics) were harvested with trypsin and diluted to 1×10⁶ cells/ml in 1% BSA/1×PBS. […] Antibodies serially diluted in 1% BSA/1×PBS were added at 100 ul/well to the pelleted cells and incubated at 4° C. for 1 hour. […] Cells were washed two times with 180 ul/well of 1% BSA/1×PBS by centrifugation at 1500 rpm for 5 minutes at 4° C. […] Cells were then washed two times as described above. After the final wash, cells were resuspended in 80 ul 1% BSA/1×PBS and fluorescence values were measured with a FACS Canto II cytometer (BD Biosciences). The amount of cell surface bound anti-CD19&CD3 bispecific antibody was assessed by measuring the mean fluorescence (MFI). The FACS raw data were analyzed by FlowJo software, wells containing no antibody or secondary antibody only were used to establish background fluorescence. Binding EC50 values were obtained by the four-parameter non-linear regression analysis using GraphPad Prism 5 software.

[2] = biological target: T2, Cynomolgus CD3 epsilon protein (W331-cynoPro1.ECD.His) (cynomolgus, UniProt Q95LI5 22-117); assay: ELISA, cynomolgus CD3 epsilon protein coated
T2 construct: extracellular domain; Bought protein; also called Acro #CDE-C5226
T2 sequence (looked up): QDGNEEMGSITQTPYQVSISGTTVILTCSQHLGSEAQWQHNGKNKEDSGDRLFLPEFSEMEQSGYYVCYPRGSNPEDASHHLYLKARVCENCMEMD
Method: The binding of the CD3×CD19 bispecific antibody to Cynomolgus CD3 were tested by protein binding ELISA. […] All wells were washed one time with 300 μL per well of PBS/0.5‰ Tween-20 (v/v). The wells were then blocked for one hour at room temperature with 200 μL per well of PBS/2% BSA (BOVOGEN, #BSAS) and washed three times with 300 μL per well of PBS/0.5‰ Tween-20 (v/v). For the primary antibody binding, CD3×CD19 bispecific antibody serially diluted in PBS/2% BSA were added to the relevant wells and incubated at room temperature for two hours. […] Plates were incubated at room temperature for one hour, followed by six washes as described above. […] The extent of bispecific antibody binding to Cynomolgus CD3 was determined by measuring the OD450 absorbance using the SpectraMax® M5e microplate reader. Wherever appropriate, binding EC50 values were obtained by the four-parameter non-linear regression analysis using GraphPad Prism5 software.

[3] = biological target: T3, human CD19 on CD19+ B cell lines (Ramos, Raji) (human, UniProt P15391 20-556); assay: flow cytometry on Ramos cells
T3 construct: whole, on cells; also called CD19+ Ramos cells; CD19+ Raji cells
T3 sequence (looked up): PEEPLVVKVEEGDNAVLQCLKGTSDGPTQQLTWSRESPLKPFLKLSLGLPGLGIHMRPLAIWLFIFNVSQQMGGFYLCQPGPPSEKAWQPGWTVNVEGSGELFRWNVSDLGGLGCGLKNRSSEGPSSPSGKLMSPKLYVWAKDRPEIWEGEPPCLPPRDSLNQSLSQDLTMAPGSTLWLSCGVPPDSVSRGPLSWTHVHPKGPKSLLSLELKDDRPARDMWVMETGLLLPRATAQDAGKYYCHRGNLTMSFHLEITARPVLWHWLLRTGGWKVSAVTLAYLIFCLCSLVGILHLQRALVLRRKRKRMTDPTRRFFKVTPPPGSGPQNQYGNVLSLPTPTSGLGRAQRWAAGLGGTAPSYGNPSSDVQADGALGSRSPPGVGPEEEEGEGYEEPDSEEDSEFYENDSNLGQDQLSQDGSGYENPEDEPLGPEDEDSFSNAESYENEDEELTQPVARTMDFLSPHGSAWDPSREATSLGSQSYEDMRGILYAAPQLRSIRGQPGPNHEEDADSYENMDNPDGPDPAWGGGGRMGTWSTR

[4] = biological target: T4, human CD3 on CD3+ Jurkat cells (human, UniProt P07766 23-207; P09693 23-182; P04234 22-171); assay: flow cytometry on Jurkat cells
T4 construct: whole, on cells; also called CD3 positive Jurkat cells

FcγRI = biological target: T5, FcγRI (UniProt P12314 16-288, limits assumed); assay: SPR (Biacore), receptor captured on anti-his chip, 1:1 model
T5 construct: His-tagged by the capture method
Method: Antibody binding affinity to FcγRs was detected using Biacore T200 (or Biacore 8K). Each receptor was captured on an anti-his antibody immobilized CM5 sensor chip (GE). Antibodies at different concentrations were injected over the sensor chip at a flow rate of 30 uL/min for an association phase of 60 s, followed by 60 s dissociation. The chip was then regenerated by 10 mM glycine (pH 1.5) after each binding cycle.
The sensorgrams of blank surface and buffer channel were subtracted from the test sensorgrams. The experimental data was fitted by 1:1 model using Langmiur analysis (for FcγRI) or steady state model (for other receptors). A molecular weight of 150 KDa was used to calculate the molar concentration of antibodies.

[5] = biological target: T6, ECD of human CTLA-4 (SPR analyte) (human, UniProt P16410 36-161); assay: SPR (Biacore T200), antibody captured by anti-human Fc, CTLA-4 ECD as analyte
T6 construct: extracellular domain
Method: (§1) SPR technology was used to measure the on-rate constant (ka) and off-rate constant (kd) of the antibodies to ECD of CTLA-4 or PD-1. The affinity constant (KD) was consequently determined.
(§2) Biacore T200, Series S Sensor Chip CM5, Amine Coupling Kit, and 10×HBS-EP were purchased from GE Healthcare. Goat anti-human IgG Fc antibody was purchased from Jackson ImmunoResearch Lab (catalog number 109-005-098). In immobilization step, the activation buffer was prepared by mixing 400 mM EDC and 100 mM NHS immediately prior to injection. The CM5 sensor chip was activated for 420 s with the activation buffer. 30 μg/mL of goat anti-human IgG Fcγ antibody in 10 mM NaAc (pH 4.5) was then injected to Fc1-Fc4 channels for 200 s at a flow rate of 5 μL/min. The chip was deactivated by 1 M ethanolamine-HCl (GE). Then the antibodies were captured on the chip. Briefly, 4 μg/mL antibodies in running buffer (HBS-EP+) was injected individually to Fc3 channel for 30 s at a flow rate of […]. […] Regeneration buffer (10 mM Glycine pH 1.5) was injected at 10 μL min for 30 s following every dissociation phase.

[6] = biological target: T6, ECD of human CTLA-4 (SPR analyte); assay: SPR (Biacore), antibody captured as ligand on an anti-human IgG Fc chip, CTLA4 ECD as analyte
Method: as §1, §2

T6 sequence (P16410 36-161): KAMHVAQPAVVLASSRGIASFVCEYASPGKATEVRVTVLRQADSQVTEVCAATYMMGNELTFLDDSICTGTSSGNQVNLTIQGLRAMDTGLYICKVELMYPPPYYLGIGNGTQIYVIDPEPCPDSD
T5 sequence (P12314 16-288 limits assumed): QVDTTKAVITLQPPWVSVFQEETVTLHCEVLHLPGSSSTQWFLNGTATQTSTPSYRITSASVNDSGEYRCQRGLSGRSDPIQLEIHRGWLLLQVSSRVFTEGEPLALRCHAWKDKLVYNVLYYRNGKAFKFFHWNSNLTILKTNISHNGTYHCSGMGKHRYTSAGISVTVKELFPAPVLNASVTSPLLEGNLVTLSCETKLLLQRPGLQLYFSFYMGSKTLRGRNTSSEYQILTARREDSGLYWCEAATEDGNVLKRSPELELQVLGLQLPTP
T4 sequence (P07766 23-207, chain 1 of 3): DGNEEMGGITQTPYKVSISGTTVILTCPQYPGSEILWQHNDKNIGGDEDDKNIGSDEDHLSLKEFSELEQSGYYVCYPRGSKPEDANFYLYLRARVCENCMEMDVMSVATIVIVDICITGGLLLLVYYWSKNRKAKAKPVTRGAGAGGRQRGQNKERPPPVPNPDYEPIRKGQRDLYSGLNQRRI
T4 sequence (P09693 23-182, chain 2 of 3): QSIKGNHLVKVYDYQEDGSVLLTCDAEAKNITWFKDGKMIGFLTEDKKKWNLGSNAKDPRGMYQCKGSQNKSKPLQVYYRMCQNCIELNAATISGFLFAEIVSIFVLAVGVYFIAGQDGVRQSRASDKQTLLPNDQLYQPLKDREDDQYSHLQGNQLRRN
T4 sequence (P04234 22-171, chain 3 of 3): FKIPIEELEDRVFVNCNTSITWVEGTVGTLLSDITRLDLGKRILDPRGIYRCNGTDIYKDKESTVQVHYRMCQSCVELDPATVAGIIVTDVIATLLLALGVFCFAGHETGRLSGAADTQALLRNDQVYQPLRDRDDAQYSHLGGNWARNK

Binder	EC50 [1] [nM]	EC50 [2] [nM]	EC50 [3] [nM]	EC50 [4] [nM]	Kd (FcγRI) [nM]	Kd [5] [nM]	Kd [6] [nM]	koff [6] [s⁻¹]	kon [6] [M⁻¹ s⁻¹]
W3438-T3U4.E17-1.uIgG4.SP, bispecific anti-CD3 x CD19 (bispecific antibody, also called E17-Design_2-QQQQ (IgG4); E17-IgG4; copies: 1 + 1 + 1 + 1) heavy 1: QVQLVQSGAEVKKPGSSVKVSCKASGFAFTDYYIHWVRQAPGQGLEWMGWISPGNVNTKYNENFKGRVTITADKSTSTAYMELSSLRSEDTAVYYCARDGYSLYYFDYWGQGTLVTVLEDLKNVFPPEVAVFEPSEAEISHTQKATLVCLATGFYPDHVELSWWVNGKEVHSGVCTDPQPLKEQPALQDSRYALSSRLRVSATFWQNPRNHFRCQVQFYGLSENDEWTQDRAKPVTQIVSAEAWGRYGPPCPPCPAPEFLGGPSVFLFPPKPKDTLMISRTPEVTCVVVDVSQEDPEVQFNWYVDGVEVHNAKTKPREEQFNSTYRVVSVLTVLHQDWLNGKEYKCKVSNKGLPSSIEKTISKAKGQPREPQVYTLPPCQEEMTKNQVSLWCLVKGFYPSDIAVEWESNGQPENNYKTTPPVLDSDGSFFLYSRLTVDKSRWQEGNVFSCSVMHEALHNHYTQKSLSLSLGK light 1: DIVMTQSPDSLAVSLGERATINCKSSQSLLNSRTRKNYLAWYQQKPGQPPKLLIYWASTRQSGVPDRFSGSGSGTDFTLTISSLQAEDVAVYYCTQSHTLRTFGGGTKVEIKPDIQNPDPAVYQLRDSKSSDKSVCLFTDFDSQTQVSQSKDSDVYITDKCVLDMRSMDFKSNSAVAWSQKSDFACANAFQNSIIPEDTFFPSPESS heavy 2: QMQLVQSGPEVKKPGTSVKVSCKASGYAFTSYNMYWVRQARGQRLEWIGYIDPYNGDTTYNQKFKGRVTITRDMSTSTAYMELSSLRSEDTAVYYCLTTAYAMDYWGQGTLVTVSSASTKGPSVFPLAPCSRSTSESTAALGCLVKDYFPEPVTVSWNSGALTSGVHTFPAVLQSSGLYSLSSVVTVPSSSLGTKTYTCNVDHKPSNTKVDKRVESKYGPPCPPCPAPEFLGGPSVFLFPPKPKDTLMISRTPEVTCVVVDVSQEDPEVQFNWYVDGVEVHNAKTKPREEQFNSTYRVVSVLTVLHQDWLNGKEYKCKVSNKGLPSSIEKTISKAKGQPREPQVCTLPPSQEEMTKNQVSLSCAVKGFYPSDIAVEWESNGQPENNYKTTPPVLDSDGSFFLVSRLTVDKSRWQEGNVFSCSVMHEALHNHYTQKSLSLSLGK light 2: DIQLTQSPSFLSASVGDRVTITCSASSTVNYMHWYQQKPGKAPKLLIYSTSNLASGVPSRFSGSGSGTEFTLTISSLQPEDFATYYCHQWSSYPYTFGQGTKLEIKRTVAAPSVFIFPPSDEQLKSGTASVVCLLNNFYPREAKVQWKVDNALQSGNSQESVTEQDSKDSTYSLSSTLTLSKADYEKHKVYACEVTHQGLSSPVTKSFNRGEC	26	0.04	15.6	47	9.79				
W3248-U6T5.G25-1.uIgG4.SP, bispecific anti-PD-1 x CTLA-4 (bispecific antibody, IgG4 (S228P); also called WBP3248-U6T5.G25-1-uIgG4.SP; U6T5.G25.IgG4) heavy: not shown light 1: SYELTQPLSVSVALGQTARITCGGDNIGNKDVHWYQQKPGQAPVLVIYRDSNRPSGIPEGFSGSNSGNTATLTISRAQAGDEADYYCQVWDSIWVFGGGTKLTVLPDIQNPDPAVYQLRDSKSSDKSVCLFTDFDSQTQVSQSKDSDVYITDKCVLDMRSMDFKSNSAVAWSQKSDFACANAFQNSIIPEDTFFPSPESS light 2: EIVLTQSPDFQSVTPKEKVTITCSANSALSYMYWYQQKPDQSPKLWVHGTSNLASGVPSRFSGSGSGTDFTLTINSLEAEDAATYYCHHWSNTQWTFGGGTKVEIKRTVAAPSVFIFPPSDEQLKSGTASVVCLLNNFYPREAKVQWKVDNALQSGNSQESVTEQDSKDSTYSLSSTLTLSKADYEKHKVYACEVTHQGLSSPVTKSFNRGEC						0.357	0.0356	2.88e-05	808000
